Assay results published in US20250277767A1.

B1: mAb-EspB-B7 (antibody, V domains shown)
VH: EVQLLESGGGLVQPGGSLRLSCAASGFTFSHYAMNWVRQAPGKGLEWVSAINSNGDSTYYPDTVKDRFTISRDNSKNTLYLQMNSLRAEDTAVYYCARDRRAGYFDYWGQGTLVTVSS
VL: DIVLTQPPSASGTPGQRVTISCSGSRDNIGKNYVSWYQQLPGTAPKLLIYRNNQRPSGVPDRFSGSKSGTSASLAISGLRSEDEADYYCSAWDTSLNAYVFGPGTQLTVL

Columns and labels:
[1] = target: peptide #50 (cyclic EspB peptide, positions 197-211) (Enteropathogenic Escherichia coli (EPEC)); assay: ELISA, plate coated with peptide #50, serially diluted mAb
[2] = target: peptide #49 (cyclic EspB peptide, positions 193-207) (Enteropathogenic Escherichia coli (EPEC)); assay: ELISA, plate coated with peptide #49, serially diluted mAb
[3] = target: peptide #49+50 (combined sequences of peptides #49 and #50) (Enteropathogenic Escherichia coli (EPEC)); assay: ELISA, plate coated with peptide #49+50, serially diluted mAb
[4] = target: mAb-EspB-B7

Binder	EC50 (read off the curve) [1] [µg/mL]	EC50 (read off the curve) [2] [µg/mL]	EC50 (read off the curve) [3] [µg/mL]	IC50 (read off the curve) [4] [µg/mL]
B1	0.5	0.5	0.3	
CTSAQKASQVAEEAADAAQEC (modifications not checked) [peptide #49+50 (combined sequences of peptides #49 and #50)]				2
